The data set addresses RAD51-Q242R (human, UniProt Q06609 1-339, Q242R). In words: EMSA; 2 mM ATP, 10 mM Mg2+; 20 mM Hepes-NaOH pH 7.5, 0.1 mg/ml BSA, 1 mM DTT, 10 mM MgCl2, 150 mM KCl, 2 mM ATP or AMP-PNP or no nucleotide, 2.7 uM (nt) DNA, 37 C 10 min; 8% native PAGE in 1x TBE. The settings on record: protein: recombinant; tags: N-terminal His-tag removed with thrombin; chain copies: 8; label: 5'-Cy5 on strand 1; blunt.

From PMC10716581, “Fanconi anemia-associated mutation in RAD51 compromises the coordinated action of DNA-binding and ATPase activities” come the findings set out here.

Sequence of RAD51-Q242R (Q06609 whole entry Q242R): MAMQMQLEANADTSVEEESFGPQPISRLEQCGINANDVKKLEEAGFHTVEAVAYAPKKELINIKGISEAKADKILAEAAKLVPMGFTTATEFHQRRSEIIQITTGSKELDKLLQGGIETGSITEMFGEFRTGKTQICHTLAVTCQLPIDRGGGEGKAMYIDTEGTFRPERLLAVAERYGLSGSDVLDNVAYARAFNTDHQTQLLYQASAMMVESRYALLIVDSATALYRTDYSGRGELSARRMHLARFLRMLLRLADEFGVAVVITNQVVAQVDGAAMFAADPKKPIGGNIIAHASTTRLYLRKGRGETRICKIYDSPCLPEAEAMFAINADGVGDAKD

B1: Cy5-OL4/OL5 40-mer (dsDNA)
DNA 1: TAATACAAAATAAGTAAATGAATAAACAGAGAAAATAAAG
DNA 2: CTTTATTTTCTCTGTTTATTCATTTACTTATTTTGTATTA
As to B1, the binding result is recorded as “binds”.
